Laboratory results: patent US20100196390A1 (RINAT NEUROSCIENCE, published 2010)

Target: TrkB (Homo sapiens (Human), UniProt Q16620 32-430)
Assay: koff of Fab at 25 C; T1/2=Log2/koff
Summary of the method: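 Monovalent Fab fragments were tested at 25° C by surface plasmon resonance on a Biacore instrument, against TrkB extracellular-domain monomer amine-coupled to the chip at low capacity. Fabs were injected low to high as a 3-fold serial dilution from 100 nM for 84 sec, with a 10 minute dissociation after the top sample. The dissociation half-life was calculated from koff, which was fitted to a Langmuir binding model in BIAevaluation. The formula used was T1/2 = Log 2/koff.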

Chain of TrkB (Q16620 32-430 limits assumed): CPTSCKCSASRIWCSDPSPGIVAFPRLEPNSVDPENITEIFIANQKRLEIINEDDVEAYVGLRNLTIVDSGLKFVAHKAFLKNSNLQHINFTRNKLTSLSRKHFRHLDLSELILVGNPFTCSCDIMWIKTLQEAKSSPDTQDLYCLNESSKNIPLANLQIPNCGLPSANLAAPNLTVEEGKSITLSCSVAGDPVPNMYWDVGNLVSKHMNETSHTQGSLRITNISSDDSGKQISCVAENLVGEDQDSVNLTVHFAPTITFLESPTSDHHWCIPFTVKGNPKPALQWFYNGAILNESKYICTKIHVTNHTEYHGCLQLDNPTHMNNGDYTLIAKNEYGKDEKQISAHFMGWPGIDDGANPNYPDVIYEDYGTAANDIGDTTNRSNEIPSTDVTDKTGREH

B1: 6-D12 (Fab, V domains shown)
VH: QVQLVQSGAEVKKPGASVKVSCKASGYTFTNYVILWVRQAPGQGLEWMGYINPYNDGTKYNEKFKGRVTMTRDTSTSTVYMELSSLRSEDTAVYYCARLLKYRRFRYYAIDYWGQGTTVTVSS
VL: DIQMTQSPSSLSASVGDRVTITCRASENVYSNLAWYQQKPGKAPKLLIYAASNLQSGVPSRFSGSGSGTDFTFTISSLQPEDIATYYCQHFWASPFTFGQGTKLEIK
notes: Fab
Q: B1 was tested. Which T1/2 did it give?
A: 1.7 min

B2: 9-D11 (Fab, V domains shown)
VH: QVQLVQSGAEVKKPGASVKVSCKASGYTFTNYVILWVRQAPGQGLEWMGYINPYNDGTKYNEKFKGRVTMTRDTSTSTVYMELSSLRSEDTAVYYCARLLKYRRFKYYAIDYWGQGTTVTVSS
VL: DIQMTQSPSSLSASVGDRVTITCRASENVYSNLAWYQQKPGKAPKLLIYAASNLQSGVPSRFSGSGSGTDFTFTISSLQPEDIATYYCQHFWMSPFTFGQGTKLEIK
notes: Fab
Q: With B2 as the binder, how does the T1/2 read?
A: 1.55 min

B3: 6-H12 (Fab, V domains shown)
VH: QVQLVQSGAEVKKPGASVKVSCKASGYTFTNYVILWVRQAPGQGLEWMGYINPYNDGTKYNEKFKGRVTMTRDTSTSTVYMELSSLRSEDTAVYYCARLLKYRRFSYYAIDYWGQGTTVTVSS
VL: DIQMTQSPSSLSASVGDRVTITCRASENVYSNLAWYQQKPGKAPKLLIYAASNLQSGVPSRFSGSGSGTDFTFTISSLQPEDIATYYCQHFWHSPFTFGQGTKLEIK
notes: Fab
Q: Which T1/2 does the source give for B3 here?
A: 1.54 min

B4: 8-B2 (Fab, V domains shown)
VH: QVQLVQSGAEVKKPGASVKVSCKASGYTFTNYVILWVRQAPGQGLEWMGYINPYNDGTKYNEKFKGRVTMTRDTSTSTVYMELSSLRSEDTAVYYCARLLKYRRFRYYAIDYWGQGTTVTVSS
VL: DIQMTQSPSSLSASVGDRVTITCRASENVYSNLAWYQQKPGKAPKLLIYAASNLQSGVPSRFSGSGSGTDFTFTISSLQPEDIATYYCQHFYYSPFTFGQGTKLEIK
notes: Fab
Q: With B4 as the binder, how does the T1/2 read?
A: 1.46 min

B5: 8-G2 (Fab, V domains shown)
VH: QVQLVQSGAEVKKPGASVKVSCKASGYTFTNYVILWVRQAPGQGLEWMGYINPYNDGTKYNEKFKGRVTMTRDTSTSTVYMELSSLRSEDTAVYYCARLLKYRRFRFYAIDYWGQGTTVTVSS
VL: DIQMTQSPSSLSASVGDRVTITCRASENVYSNLAWYQQKPGKAPKLLIYAASNLQSGVPSRFSGSGSGTDFTFTISSLQPEDIATYYCQHFGYSPFIFGQGTKLEIK
notes: Fab
Q: B5 was tested. Which T1/2 did it give?
A: 1.88 min

B6: 10-A5 (Fab, V domains shown)
VH: QVQLVQSGAEVKKPGASVKVSCKASGYTFTNYDIIWVRQAPGQGLEWMGYINPYNDGTKYNEKFKGRVTMTRDTSTSTVYMELSSLRSEDTAVYYCARLLKYRRFRYYAIDYWGQGTTVTVSS
VL: DIQMTQSPSSLSASVGDRVTITCRASETVYSNLAWYQQKPGKAPKLLIYAASNLQSGVPSRFSGSGSGTDFTFTISSLQPEDIATYYCQHFWGSPFTFGQGTKLEIK
notes: Fab
Q: For B6, which T1/2 is on record?
A: 1 min

B7: 9-D6 (Fab, V domains shown)
VH: QVQLVQSGAEVKKPGASVKVSCKASGYTFTNYVILWVRQAPGQGLEWMGYINPYNDGTKYNEKFKGRVTMTRDTSTSTVYMELSSLRSEDTAVYYCARLLKYRRFSYYAIDVWGQGTTVTVSS
VL: DIQMTQSPSSLSASVGDRVTITCRASENVYSNLAWYQQKPGKAPKLLIYAASNLQSGVPSRFSGSGSGTDFTFTISSLQPEDIATYYCQHFSYSPFTFGQGTKLEIK
notes: Fab
Q: For B7, which T1/2 is on record?
A: 1.45 min

B8: 10-A7 (Fab, V domains shown)
VH: QVQLVQSGAEVKKPGASVKVSCKASGYTFTNYDIIWVRQAPGQGLEWMGYINPYNGRREYNEKFKGRVTMTRDTSTSTVYMELSSLRSEDTAVYYCARLLKYRRFRYYAIDYWGQGTTVTVSS
VL: DIQMTQSPSSLSASVGDRVTITCRASENVYSHLAWYQQKPGKAPKLLIYAASNLQSGVPSRFSGSGSGTDFTFTISSLQPEDIATYYCQHFWYSPFTFGQGTKLEIK
notes: Fab
Q: How did the T1/2 turn out when B8 was run?
A: 3 min

B9: 8-D2 (Fab, V domains shown)
VH: QVQLVQSGAEVKKPGASVKVSCKASGYTFTNYVILWVRQAPGQGLEWMGYINPYNDGTKYNEKFKGRVTMTRDTSTSTVYMELSSLRSEDTAVYYCARLLKYRRFSYYAADYWGQGTTVTVSS
VL: DIQMTQSPSSLSASVGDRVTITCRASENVYSNLAWYQQKPGKAPKLLIYAASNLQSGVPSRFSGSGSGTDFTFTISSLQPEDIATYYCQNFWYSPFTFGQGTKLEIK
notes: Fab
Q: How did the T1/2 turn out when B9 was run?
A: 1.81 min

B10: 10-B9 (Fab, V domains shown)
VH: QVQLVQSGAEVKKPGASVKVSCKASGYTFTNYDIIWVRQAPGQGLEWMGYINPYNDGRKENEKFKGRVTMTRDTSTSTVYMELSSLRSEDTAVYYCARLLKYRRFRYYAIDYWGQGTTVTVSS
VL: DIQMTQSPSSLSASVGDRVTITCRASEPVYSNLAWYQQKPGKAPKLLIYAASNLQSGVPSRFSGSGSGTDFTFTISSLQPEDIATYYCQHFWGSPFTFGQGTKLEIK
notes: Fab
Q: B10 was tested. Which T1/2 did it give?
A: 4 min

B11: 8-H7 (Fab, V domains shown)
VH: QVQLVQSGAEVKKPGASVKVSCKASGYTFTNYVILWVRQAPGQGLEWMGYINPYNDGTKYNEKFKGRVTMTRDTSTSTVYMELSSLRSEDTAVYYCARLLKYRRFSFYAIDYWGQGTTVTVSS
VL: DIQMTQSPSSLSASVGDRVTITCRASENVYSNLAWYQQKPGKAPKLLIYAASNLQSGVPSRFSGSGSGTDFTFTISSLQPEDIATYYCQHFVYSPFTFGQGTKLEIK
notes: Fab
Q: B11 was tested. Which T1/2 did it give?
A: 1.18 min

B12: 9-D9 (Fab, V domains shown)
VH: QVQLVQSGAEVKKPGASVKVSCKASGYTFTNYVILWVRQAPGQGLEWMGYINPYNDGTKYNEKFKGRVTMTRDTSTSTVYMELSSLRSEDTAVYYCARLLKYRRFRYYAIDYWGQGTTVTVSS
VL: DIQMTQSPSSLSASVGDRVTITCRASENVYSNLAWYQQKPGKAPKLLIYAASNLQSGVPSRFSGSGSGTDFTFTISSLQPEDIATYYCQHFWYSPFAFGQGTKLEIK
notes: Fab
Q: For B12, which T1/2 is on record?
A: 1.54 min

B13: 7-B9 (Fab, V domains shown)
VH: QVQLVQSGAEVKKPGASVKVSCKASGYTFTNYVILWVRQAPGQGLEWMGYINPYNDGTKYNEKFKGRVTMTRDTSTSTVYMELSSLRSEDTAVYYCARLLKYRRFSYYAIDVWGQGTTVTVSS
VL: DIQMTQSPSSLSASVGDRVTITCRASENVYSNLAWYQQKPGKAPKLLIYAASNLQSGVPSRFSGSGSGTDFTFTISSLQPEDIATYYCQHFWYSPWTFGQGTKLEIK
notes: Fab
Q: B13 was tested. Which T1/2 did it give?
A: 1.79 min

B14: 7-C11 (Fab, V domains shown)
VH: QVQLVQSGAEVKKPGASVKVSCKASGYTFTNYVILWVRQAPGQGLEWMGYINPYNDGTKYNEKFKGRVTMTRDTSTSTVYMELSSLRSEDTAVYYCARLLKYRRFSYYAIDYWGQGTTVTVSS
VL: DIQMTQSPSSLSASVGDRVTITCRASENVYSNLAWYQQKPGKAPKLLIYAASNLQSGVPSRFSGSGSGTDFTFTISSLQPEDIATYYCQHFKYSPFTFGQGTKLEIK
notes: Fab
Q: With B14 as the binder, how does the T1/2 read?
A: 1.07 min

B15: 6-E10 (Fab, V domains shown)
VH: QVQLVQSGAEVKKPGASVKVSCKASGYTFTNYVILWVRQAPGQGLEWMGYINPYNDGTKYNEKFKGRVTMTRDTSTSTVYMELSSLRSEDTAVYYCARLLKYRPFSYYAIDYWGQGTTVTVSS
VL: DIQMTQSPSSLSASVGDRVTITCRASENVYSNLAWYQQKPGKAPKLLIYAASNLQSGVPSRFSGSGSGTDFTFTISSLQPEDIATYYCQHFSLSPFTFGQGTKLEIK
notes: Fab
Q: With B15 as the binder, how does the T1/2 read?
A: 1.3 min

B16: 8-C8 (Fab, V domains shown)
VH: QVQLVQSGAEVKKPGASVKVSCKASGYTFTNYVILWVRQAPGQGLEWMGYINPYNDGTKYNEKFKGRVTMTRDTSTSTVYMELSSLRSEDTAVYYCARLLKYRRFRYYAIDYWGQGTTVTVSS
VL: DIQMTQSPSSLSASVGDRVTITCRASENVYSNLAWYQQKPGKAPKLLIYAASNLQSGVPSRFSGSGSGTDFTFTISSLQPEDIATYYCQHFWYSPFGFGQGTKLEIK
notes: Fab
Q: For B16, which T1/2 is on record?
A: 1.78 min

B17: 7-B1 (Fab, V domains shown)
VH: QVQLVQSGAEVKKPGASVKVSCKASGYTFTNYVILWVRQAPGQGLEWMGYINPYNDGTKYNEKFKGRVTMTRDTSTSTVYMELSSLRSEDTAVYYCARLLKYRRFRYYAIDYWGQGTTVTVSS
VL: DIQMTQSPSSLSASVGDRVTITCRASENVYSNLAWYQQKPGKAPKLLIYAASNLQSGVPSRFSGSGSGTDFTFTISSLQPEDIATYYCQHFWYSPFKFGQGTKLEIK
notes: Fab
Q: With B17 as the binder, how does the T1/2 read?
A: 0.81 min

B18: 9-G8 (Fab, V domains shown)
VH: QVQLVQSGAEVKKPGASVKVSCKASGYTFTNYVILWVRQAPGQGLEWMGYINPYNDGTKYNEKFKGRVTMTRDTSTSTVYMELSSLRSEDTAVYYCARLLKYRRFSYYAIDYWGQGTTVTVSS
VL: DIQMTQSPSSLSASVGDRVTITCRASENVYSNLAWYQQKPGKAPKLLIYAASNLQSGVPSRFSGSGSGTDFTFTISSLQPEDIATYYCQHFWYSPFWFGQGTKLEIK
notes: Fab
Q: With B18 as the binder, how does the T1/2 read?
A: 1.13 min

B19: 7-B8 (Fab, V domains shown)
VH: QVQLVQSGAEVKKPGASVKVSCKASGYTFTNYVILWVRQAPGQGLEWMGYINPYNDGTKYNEKFKGRVTMTRDTSTSTVYMELSSLRSEDTAVYYCARLLKYRRFRYYAIDYWGQGTTVTVSS
VL: DIQMTQSPSSLSASVGDRVTITCRASENVYSNLAWYQQKPGKAPKLLIYAASNLQSGVPSRFSGSGSGTDFTFTISSLQPEDIATYYCQHFWYSPCTFGQGTKLEIK
notes: Fab
Q: How did the T1/2 turn out when B19 was run?
A: 1.18 min

B20: 7-F1 (Fab, V domains shown)
VH: QVQLVQSGAEVKKPGASVKVSCKASGYTFTNYVILWVRQAPGQGLEWMGYINPYNDGTKYNEKFKGRVTMTRDTSTSTVYMELSSLRSEDTAVYYCARLLKYRRFRYYAIDYWGQGTTVTVSS
VL: DIQMTQSPSSLSASVGDRVTITCRASENVYSNLAWYQQKPGKAPKLLIYAASNLQSGVPSRFSGSGSGTDFTFTISSLQPEDIATYYCQNFWYSPFTFGQGTKLEIK
notes: Fab
Q: B20 was tested. Which T1/2 did it give?
A: 0.54 min

B21: 7-D1 (Fab, V domains shown)
VH: QVQLVQSGAEVKKPGASVKVSCKASGYTFTNYVILWVRQAPGQGLEWMGYINPYNDGTKYNEKFKGRVTMTRDTSTSTVYMELSSLRSEDTAVYYCARLLKYRRFSYYAIDVWGQGTTVTVSS
VL: DIQMTQSPSSLSASVGDRVTITCRASENVYSNLAWYQQKPGKAPKLLIYAASNLQSGVPSRFSGSGSGTDFTFTISSLQPEDIATYYCQHFWYLPFTFGQGTKLEIK
notes: Fab
Q: B21 was tested. Which T1/2 did it give?
A: 0.7 min
